Source: the supplement of paper PMC9170038

System: MS2 coat protein
Assay: apparent KD of MS2 coat protein; designed switch direction (-1 OFF switch, 1 ON switch): -1; higher = weaker reporter binding
Method in brief: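 Designed RNA switches sharing common flanks were transcribed on Illumina chips by stalled E. coli RNA polymerase. They were titrated with SNAP-549-labelled MS2 coat protein, from 0.7 or 1.5 nM doubling to 3 µM, in Tris-HCl pH 7.5 buffer with KCl, MgCl2, BSA, DTT, tRNA and Tween-20. Titrations ran without input, with 200 uM small-molecule ligand, or with an oligonucleotide input. The apparent KD of each design is the median over its clusters, after curve-fitting of normalised cluster fluorescence.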

[1] = input ligand: microRNA oligo, concentration not stated
[2] = Eterna round: R95, input ligand: FMN 200 uM
[3] = Eterna round: R95, input ligand: microRNA oligo, concentration not stated
[4] = Eterna round: R95, input ligand: none

| Sequence | apparent KD of MS2 coat protein (input ligand: FMN 200 uM) [nM] | apparent KD of MS2 coat protein [1] [nM] | apparent KD of MS2 coat protein (input ligand: none) [nM] | apparent KD of MS2 coat protein [2] [nM] | apparent KD of MS2 coat protein [3] [nM] | apparent KD of MS2 coat protein [4] [nM] |
| --- | --- | --- | --- | --- | --- | --- |
| UGUUGUUACGCAGGAUAUCCACCAACAGGUGGAAGGAUAUGUACGCAGAAGGUUCGCCAACAGGCGGAGAAGGGCGGGUUAACA [pwkr exNG2 2xF7 2xFMN.26] (Eterna round: R96, puzzle: Exclusion NG 2) | 178 | 63.4 | 3690 |  |  |  |
| AGAAGUAGUACCCGAUCCUACAUGAGGAUCACCCAUGUAGCUAGACGUGCACGCGAUGCUCGUCAGACUACCAGAUG [salish99_TOv1_r3_032] (puzzle: Sensor v3, turn-off variant 1) |  |  |  | 153 | 144 | 189 |
| AAAGAGCUAGGAUAUCGCGACCUUGACAUGAGGAUCACCCAUGUGCCCUCGUAACAACGACGAGAAGGAGCGAAAA [Gelaladied] (puzzle: Exclusion 5) |  |  |  | 36.2 | 16.8 | 19.9 |
| AUAUCAAGCAAGGAUAUGCAAAUGGUUAUUUAUGCAGAAGGUGCGACAUGAGGAUCACCCAUGUUUCUGGGUUU [JR_E6_Sub050] (puzzle: Exclusion 6) |  |  |  |  | 68.2 |  |
| CGAUAAUCCAAGGAUAUGCUAGACGAAAGUCUAGCAGAAGGUGGAACAUGAGGAUCACCCAUGUGUCCAAAUCG [Mat - Exclusion 6 - Eli Mod - D27] (Eterna round: R97, puzzle: Exclusion 6) | 22.2 |  | 14.7 |  |  |  |
| UAUUGCGAGUGAGGAUAUGACAUGAGGAUCACCCAUGUAAAGGGAGUUGGCUAUAUAGCAAGUUUUCAGAAGGCACUACUGUAU [JR_ExcNG2_Sub007] (Eterna round: R96, puzzle: Exclusion NG 2) | 114 | 48.8 | 66.4 |  |  |  |
| CUUAGUAUCUAGGAUAUCUAGUACAUAGUAUCUAGAGAAGGAGAUACAUGAGGAUCACCCAUGUUCUGUGUUCU [Exclusion 6 - 1:b] (puzzle: Exclusion 6) |  |  |  |  | 22.2 |  |
| UAUUAGCAAGUAAGGUCCCACAUGAGGAUCACCCAUGUGCUCGUCUCCUCAGGUACGGAGUGGAAACUCCCGAUAUG [Sensor-V1 #93] (Eterna round: R97, puzzle: Sensor, turn-off variant 1) | 84.7 |  | 76 |  |  |  |
| GCGAAAGCAAAACAAGUGAACAUGAGGAUCACCCAUGUCCUCAUUUGCUCGUCUUAUAAGCUAUGCGAAAGCAUAGC [Sensor 3, v1 - 9] (puzzle: Sensor v3, turn-off variant 1) |  |  |  | 99 | 1220 | 96.7 |
| ACAAGCUUUACGAUCCUCAACAUGAGGAUCACCCAUGUGCUCGUAUUGUUUAGUACUAUCACGAAAGUGAUAGUACA [Sensor, turn off variant 1 v.6] (Eterna round: R97, puzzle: Sensor, turn-off variant 1) | 1430 |  | 943 |  |  |  |
| AAUGAUUCAGGAUAUACAUGAGGAUCACCCAUGUUGGUGUCCCUCCCAAAGUUGCAGUGUAGAAGGGAGUCCCG [Tigezaonbi] (puzzle: Exclusion 3) |  |  |  |  | 132 |  |
| UUGUUAUAUGUAGGAUAUGCAUAUUAUUAUUAUGCAGAAGGACAUGAGGAUCACCCAUGUAUAUUGUUGUUAUAUAUUAUAUAU [Title] (Eterna round: R96, puzzle: Exclusion NG 1) |  | 18.2 |  |  |  |  |
| UUUAAUUUUUUUUUUUUACAAGCUUUUUGCUCGUCUUAUACAUGAGGAUCACCCAUGUGGGUAAAAGGUAAAUUAUC [JMF 63] (puzzle: Sensor v3, turn-off variant 2) |  |  |  | 15.3 | 32.8 | 17.3 |
| GCCGAUUAAGUCAGGAUAUACCUAUGGAUACAUAGGUAGAAGGGACAUGAGGAUCACCCAUGUGCCUCAACGGC [Fiskers BMX 4 - 18] (puzzle: Brourd's mod of Exclusion 4) |  |  |  | 71.7 | 18.9 | 22.7 |
| UCCUUACAUGAGGAUCACCCAUGUCAGGAUAUCUCCACACUGCGCUUGCGCAGUGUAUAGAGAAGGGACGGGCU [JL ViennaUCT Aner mod 7] (puzzle: Exclusion 1) |  |  |  |  | 28.5 |  |
| AUCAGCUCGUGAGGAUAUGAACAUGAGGAUCACCCAUGUAAGAUCAAGCUGCUUCGGCAGCAAGUUCAGAAGGUACGAGCUGAU [ENG2/10-C3] (Eterna round: R96, puzzle: Exclusion NG 2) | 197 | 78.1 | 139 |  |  |  |
| UACAUGAGGAUCACCCAUGUUUUGUCGUGUUUGGUACCCGUUUAGGAUAUCGUGUUAUUGUAUCGCGAGAAGGAGAGUAUCUUU [Excl-NG3-LRO09] (Eterna round: R96, puzzle: Exclusion NG 3) | 30.9 | 27.1 | 27 |  |  |  |
